Test results: patent US20220153844A1 (INVENRA, published 2022)
Blank lines part the entries; values can stand above or below the binder they belong to.

Columns and labels:
[1] = biological target: T1, muCD25 transiently expressed on Expi293 cells (Expi293-muCD25) (mouse, UniProt P01590 22-268); assay: flow cytometry, biotinylated mouse IL-2 on Expi293 muCD25 cells, streptavidin-PE
T1 construct: whole, on cells; also called murine CD25; single positive CD25+ cells
T1 sequence (looked up): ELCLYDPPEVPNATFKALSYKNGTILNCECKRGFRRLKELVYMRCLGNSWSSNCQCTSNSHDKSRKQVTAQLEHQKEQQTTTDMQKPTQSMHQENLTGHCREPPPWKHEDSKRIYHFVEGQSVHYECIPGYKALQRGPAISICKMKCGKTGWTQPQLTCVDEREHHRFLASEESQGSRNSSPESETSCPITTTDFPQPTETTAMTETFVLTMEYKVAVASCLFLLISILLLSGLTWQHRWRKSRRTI

[2] = biological target: T2, CTLA4 (antigen of Examples 10 and 13) (UniProt P16410 36-161, limits assumed); assay: BLI (Octet); antigen immobilised, B-Body as analyte
T2 construct: Immobilised antigen in the Octet assay
From the text: In each instance, the antigen is immobilized and the B-Body is the analyte.

[3] = biological target: T3, huCTLA4 (biotinylated human CTLA4 for BLI) (human, UniProt P16410 36-161, limits assumed, biotinylated); assay: BLI steady state analysis; biotinylated antigen on streptavidin sensor, bispecific 2 µM to 31.25 nM
T3 construct: also called Target 2

[4] = biological target: T4, mouse CD25 + CTLA4 together (Table 29) (mouse, UniProt P01590 22-236; P09793 36-161, limits assumed); assay: bivalent affinity to both CD25 and CTLA4, summary in Table 29; bivalent, CD25 + CTLA4 together
T4 construct: the format is not described

[5] = biological target: T5, mouse CD25 (target of muSNIPER in Table 29) (mouse, UniProt P01590 22-236, limits assumed); assay: monovalent affinity, summary in Table 29 (text: biolayer interferometry; data not shown); monovalent, CD25 alone
T5 construct: also called muCD25
T5 sequence (looked up): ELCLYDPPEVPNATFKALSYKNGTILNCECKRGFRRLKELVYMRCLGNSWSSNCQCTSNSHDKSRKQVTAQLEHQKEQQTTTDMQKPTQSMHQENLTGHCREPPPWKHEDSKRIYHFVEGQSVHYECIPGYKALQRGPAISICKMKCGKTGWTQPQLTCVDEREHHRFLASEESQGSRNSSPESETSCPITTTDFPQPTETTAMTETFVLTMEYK

[6] = biological target: T6, mouse CTLA4 (target of muSNIPER and anti-muCTLA4) (mouse, UniProt P09793 36-161, limits assumed, biotinylated in the blocking assay); assay: monovalent affinity, summary in Table 29 (text: biolayer interferometry; data not shown); monovalent, CTLA4 alone
T6 construct: also called Target 2

[7] = biological target: T6, mouse CTLA4 (target of muSNIPER and …); assay: BLI, biotinylated mouse CTLA4 (B-mTarget2) on streptavidin sensor, then antibody or CD86 ligand

T6 sequence (P09793 36-161 limits assumed): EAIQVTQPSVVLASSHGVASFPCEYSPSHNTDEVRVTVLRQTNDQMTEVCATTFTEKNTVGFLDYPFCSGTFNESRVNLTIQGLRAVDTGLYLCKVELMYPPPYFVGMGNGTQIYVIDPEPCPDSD
T2 sequence (P16410 36-161 limits assumed): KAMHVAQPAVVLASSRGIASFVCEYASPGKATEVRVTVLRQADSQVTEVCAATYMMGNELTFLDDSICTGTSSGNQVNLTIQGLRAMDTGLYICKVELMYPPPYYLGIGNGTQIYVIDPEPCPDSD
T3 sequence (P16410 36-161 limits assumed): as above
T4 sequence (P09793 36-161 limits assumed, one chain of several): as the sequence (P09793 36-161 limits assumed) above

binding result [1]: binds
B1: biotinylated mouse recombinant IL-2 ligand (ligand, UniProt P04351 21-169, looked up)
chain: APTSSSTSSSTAEAQQQQQQQQQQQQHLEQLLMDLQELLSRMENYRNLKLPRMLTFKFYLPKQATELKDLQCLEDELGPLRHVLDLTQSKSFQLEDAENFISNIRVTVVKLKGSDNTFECQFDDESATVVDFLRRWIAFCQSIISTSPQ
modifications: biotinylated

binding result [2]: no binding
B2: bivalent bispecific B-Body “BC1” (bispecific antibody)
chain 1: not shown
chain 2: EVQLVESGGGLVQPGGSLRLSCAASGFTFSDYDIHWVRQAPGKGLEWVGDITPYDGTTNYADSVKGRFTISADTSKNTAYLQMNSLRAEDTAVYYCARLVGEIATGFDYWGQGTLVTVSSASPREPQVYTDPPSRDELTKNQVSLTCLVKGFYPSDIAVEWESNGQPENNYKTTPPVLDSDGSFFLYSKLTVDKSRWQQGNVFSCSVMHEALHNHYTQKSLSLSGEC
chain 3: not shown
chain 4: QVQLVESGGGVVQPGRSLRLDCKASGITFSNSGMHWVRQAPGKGLEWVAVIWYDGSKRYYADSVKGRFTISRDNSKNTLFLQMNSLRAEDTAVYYCATNDDYWGQGTLVTVSSASTKGPSVFPLAPSSKSTSGGTAALGCLVKDYFPEPVTVSWNSGALTSGVHTFPAVLQSSGLYSLSSVVTVPSSSLGTQTYICNVNHKPSNTKVDKKVEPPKSC
notes: A:F site specific for Antigen A, H:L site (nivolumab) specific for human PD1

Kd [3]: 19 nM
B3: BC1 1×1 B-Body huSNIPER 19×8 binding molecule (bispecific antibody)
chain 1: not shown
chain 2: EVQLVESGGGLVQPGGSLRLSCAASGFTFSGYWIHWVRQAPGKGLEWVAAITSRDSYTYYADSVKGRFTISADTSKNTAYLQMNSLRAEDTAVYYCARGSYLGSAFDYWGQGTLVTVSSASPREPQVYTDPPSRDELTKNQVSLTCLVKGFYPSDIAVEWESNGQPENNYKTTPPVLDSDGSFFLYSKLTVDKSRWQQGNVFSCSVMHEALHNHYTQKSLSLSGEC
chain 3: SDIQMTQSPSSLSASVGDRVTITCRASQSVSSAVAWYQQKPGKAPKLLIYSASSLYSGVPSRFSGSRSGTDFTLTISSLQPEDFATYYCQQYSSQPATFGQGTKVEIKRTVAAPSVFIFPPSDEQLKSGTASVVCLLNNFYPREAKVQWKVDNALQSGNSQESVTEQDSKDSTYSLSSTLTLSKADYEKHKVYACEVTHQGLSSPVTKSFNRGECDKTHTCPPCPAPELLGGPSVFLFPPKPKDTLMISRTPEVTCVVVDVSHEDPEVKFNWYVDGVEVHNAKTKPREEQYNSTYRVVSVLTVLHQDWLNGKEYKCKVSNKALPAPIEKTISKAKGQPREPQVCTLPPSREEMTKNQVSLSCAVKGFYPSDIAVEWESNGQPENNYKTTPPVLDSDGSFFLVSKLTVDKSRWQQGNVFSCSVMHEALHNHYTQKSLSLSPGK
chain 4: EVQLVESGGGLVQPGGSLRLSCAASGFTFSSYYIHWVRQAPGKGLEWVAKIQPKGGYTYYADSVKGRFTISADTSKNTAYLQMNSLRAEDTAVYYCARSYYYRPHAFDYWGQGTLVTVSSASTKGPSVFPLAPSSKSTSGGTAALGCLVKDYFPEPVTVSWNSGALTSGVHTFPAVLQSSGLYSLSSVVTVPSSSLGTQTYICNVNHKPSNTKVDKKVEPPKSC

Kd [4]: < 5 nM
Kd [5]: > 300 nM
Kd [6]: > 100 nM
B4: Mouse Surrogate SNIPER antibody (muSNIPER) (bispecific antibody)
chain 1: not shown
chain 2: EVQLVESGGGLVQPGGSLRLSCAASGFTFSSYYIHWVRQAPGKGLEWVASISSYADYTDYADSVKGRFTISADTSKNTAYLQMNSLRAEDTAVYYCARQSYYGLDYWGQGTLVTVSSASPREPQVYTDPPSRDELTKNQVSLTCLVKGFYPSDIAVEWESNGQPENNYKTTPPVLDSDGSFFLYSKLTVDKSRWQQGNVFSCSVMHEALHNHYTQKSLSLSGEC
chain 3: DIQMTQSPSSLSASVGDRVTITCRASQSVSSAVAWYQQKPGKAPKLLIYSASSLYSGVPSRFSGSRSGTDFTLTISSLQPEDFATYYCQQWYTSPLTFGQGTKVEIKRTVAAPSVFIFPPSDEQLKSGTASVVCLLNNFYPREAKVQWKVDNALQSGNSQESVTEQDSKDSTYSLSSTLTLSKADYEKHKVYACEVTHQGLSSPVTKSFNRGECDKTHTCPPCPAPELLGGPSVFLFPPKPKDTLMISRTPEVTCVVVDVSHEDPEVKFNWYVDGVEVHNAKTKPREEQYNSTYRVVSVLTVLHQDWLNGKEYKCKVSNKALPAPIEKTISKAKGQPREPQVCTLPPSREEMTKNQVSLSCAVKGFYPSDIAVEWESNGQPENNYKTTPPVLDSDGSFFLVSKLTVDKSRWQQGNVFSCSVMHEALHNHYTQKSLSLSPGK
chain 4: EVQLVESGGGLVQPGGSLRLSCAASGFTFRQYFIHWVRQAPGKGLEWVAAIHPDSDFTYYADSVKGRFTISADTSKNTAYLQMNSLRAEDTAVYYCARGGVAIESGYALDYWGQGTLVTVSSASTKGPSVFPLAPSSKSTSGGTAALGCLVKDYFPEPVTVSWNSGALTSGVHTFPAVLQSSGLYSLSSVVTVPSSSLGTQTYICNVNHKPSNTKVDKKVEPPKSC
notes: Chains 1 and 2 form the CTLA4 arm, chains 3 and 4 the CD25 arm; BC1 scaffold; also called mSNIPER; muSINPER

binding result [7]: binds
B5: anti-muCTLA4, parental bivalent monospecific monoclonal antibody (antibody, IgG1, V domains shown)
VH: EVQLVESGGGLVQPGGSLRLSCAASGFTFSSYYIHWVRQAPGKGLEWVASISSYADYTDYADSVKGRFTISADTSKNTAYLQMNSLRAEDTAVYYCARQSYYGLDYWGQGTLVTVSS
VL: DIQMTQSPSSLSASVGDRVTITCRASQSVSSAVAWYQQKPGKAPKLLIYSASSLYSGVPSRFSGSRSGTDFTLTISSLQPEDFATYYCQQLSRGPSTFGQGTKVEIK
notes: Parent antibodies of the discovery campaign are in a human full-length IgG1 format; copies: 2 + 2
